Source: patent US9260500B2, “Peptide and use thereof” (Takeda Pharmaceutical Company Limited, priority 2009, dated 2016)
Non-standard residues stand in square brackets, D forms with d. No end group written: not given here. *: point of attachment. Phe(3-Me) = Cc1cccc(C[C@H](N)C(=O)O)c1; Cyclohexanecarbonyl = O=C(C1CCCCC1)*; Ala(cPr) = N[C@@H](CC1CC1)C(=O)O; 3Pal = N[C@@H](Cc1cccnc1)C(=O)O; 4Pal = N[C@@H](Cc1ccncc1)C(=O)O; dHyp = O=C(O)[C@H]1C[C@H](O)CN1; Cha = N[C@@H](CC1CCCCC1)C(=O)O; Gly(cPr) = N[C@H](C(=O)O)C1CC1; Isobutyryl = CC(C)C(=O)*; NMeA = CN[C@@H](C)C(=O)O; dAze = O=C(O)[C@H]1CCN1; Abu = CC[C@H](N)C(=O)O; Aib = CC(C)(N)C(=O)O; Bz = O=C(c1ccccc1)*; βAla = NCCC(=O)O

What was measured:
human Y2 receptor [1] = molecular target: T1, human Y2 receptor (Homo sapiens, UniProt P49146); experiment: Receptor Binding Assay (RBA) for Human Y2, [125I]-PYY displacement on hY2R/CHO membrane fraction; conditions: IC50 of test compound/IC50 of PYY(3-36) (PYY(3-36) taken as 1)
T1 construct: expressed in transfected cells; membrane fraction
T1 sequence (P49146 1-381): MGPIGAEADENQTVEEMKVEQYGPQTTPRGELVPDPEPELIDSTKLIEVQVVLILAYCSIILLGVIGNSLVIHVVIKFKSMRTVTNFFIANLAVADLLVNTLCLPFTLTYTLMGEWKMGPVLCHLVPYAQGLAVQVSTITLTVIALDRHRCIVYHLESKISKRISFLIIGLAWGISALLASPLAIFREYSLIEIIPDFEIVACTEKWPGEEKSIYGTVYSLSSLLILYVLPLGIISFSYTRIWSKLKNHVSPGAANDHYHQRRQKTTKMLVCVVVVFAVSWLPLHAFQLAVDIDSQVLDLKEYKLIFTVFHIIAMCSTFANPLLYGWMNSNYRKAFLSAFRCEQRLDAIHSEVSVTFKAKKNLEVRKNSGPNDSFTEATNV
Procedure, shortened: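 hY2R stably expressed in CHO/dhfr− cells; membrane fraction prepared from cells disrupted in 10 mM NaHCO3, 5 mM EDTA buffer with protease inhibitors. Binding read as displacement of [125I]-PYY.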

human Y2 receptor [2] = molecular target: T1, human Y2 receptor; experiment: Human Y2 Receptor G Protein Binding Assay (GBA), [35S]GTPγS; format: biochemical; conditions: EC50 of test compound/EC50 of PYY(3-36) (PYY3-36 taken as 1), hY2R/CHO membrane fraction
Procedure, shortened: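 Agonism measured as [35S]GTPγS binding, read by GF/C filtration and scintillation counting after 120 min at room temperature, using human Y2 membranes at 1 μg protein/mL in pH 7.4 Tris/MgCl2/NaCl/GDP buffer. Compound serially diluted 100 μM–1 nM; EC50 normalized to PYY(3-36) (ratio = compound/PYY).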

Row | Substance | RBA IC50 Ratio (human Y2 receptor [1]) | GBA EC50 Ratio (human Y2 receptor [2])
1 | Isobutanoyl-[Glu23, D-Pro24, Pya(4)26, Cha27,36, Aib28,31, Lys30]-PYY(23-36) (Isobutyryl-E[dP]R[4Pal][Cha][Aib]NK[Aib]TRQR[Cha]-NH2; SMILES CC(C)C(=O)N[C@@H](CCC(=O)O)C(=O)N1CCC[C@@H]1C(=O)N[C@@H](CCCNC(=N)N)C(=O)N[C@@H](Cc1ccncc1)C(=O)N[C@@H](CC1CCCCC1)C(=O)NC(C)(C)C(=O)N[C@@H](CC(N)=O)C(=O)N[C@@H](CCCCN)C(=O)NC(C)(C)C(=O)N[C@H](C(=O)N[C@@H](CCCNC(=N)N)C(=O)N[C@@H](CCC(N)=O)C(=O)N[C@@H](CCCNC(=N)N)C(=O)N[C@@H](CC1CCCCC1)C(N)=O)[C@@H](C)O) [compound No. 214] | 1.9 | 2.0
2 | Isobutanoyl-[Abu26, Cha27,28,36, Gly(cPr)31]-PYY(25-36) (Isobutyryl-R[Abu][Cha][Cha]NL[Gly(cPr)]TRQR[Cha]-NH2; SMILES CC[C@H](NC(=O)[C@H](CCCNC(=N)N)NC(=O)C(C)C)C(=O)N[C@@H](CC1CCCCC1)C(=O)N[C@@H](CC1CCCCC1)C(=O)N[C@@H](CC(N)=O)C(=O)N[C@@H](CC(C)C)C(=O)N[C@H](C(=O)N[C@H](C(=O)N[C@@H](CCCNC(=N)N)C(=O)N[C@@H](CCC(N)=O)C(=O)N[C@@H](CCCNC(=N)N)C(=O)N[C@@H](CC1CCCCC1)C(N)=O)[C@@H](C)O)C1CC1) [compound No. 88] | 25 | 16
3 | Isobutanoyl-[Abu26, Gly27, Cha28,36, Aib31]-PYY(25-36) (Isobutyryl-R[Abu]G[Cha]NL[Aib]TRQR[Cha]-NH2; SMILES CC[C@H](NC(=O)[C@H](CCCNC(=N)N)NC(=O)C(C)C)C(=O)NCC(=O)N[C@@H](CC1CCCCC1)C(=O)N[C@@H](CC(N)=O)C(=O)N[C@@H](CC(C)C)C(=O)NC(C)(C)C(=O)N[C@H](C(=O)N[C@@H](CCCNC(=N)N)C(=O)N[C@@H](CCC(N)=O)C(=O)N[C@@H](CCCNC(=N)N)C(=O)N[C@@H](CC1CCCCC1)C(N)=O)[C@@H](C)O) [compound No. 95] | 70 | 49
4 | Ac-[D-Pro24, Pya(4)26, Cha27,36, Aib28,31, Lys(Hexyl)30]-PYY(23-36) [compound No. 279] | 1.0 | 1.3
5 | Cyclohexanecarbonyl-[Cha27,36, Ala(cPr)28, Aib31]-PYY(25-36) (Cyclohexanecarbonyl-RH[Cha][Ala(cPr)]NL[Aib]TRQR[Cha]-NH2; SMILES CC(C)C[C@H](NC(=O)[C@H](CC(N)=O)NC(=O)[C@H](CC1CC1)NC(=O)[C@H](CC1CCCCC1)NC(=O)[C@H](Cc1c[nH]cn1)NC(=O)[C@H](CCCNC(=N)N)NC(=O)C1CCCCC1)C(=O)NC(C)(C)C(=O)N[C@H](C(=O)N[C@@H](CCCNC(=N)N)C(=O)N[C@@H](CCC(N)=O)C(=O)N[C@@H](CCCNC(=N)N)C(=O)N[C@@H](CC1CCCCC1)C(N)=O)[C@@H](C)O) [compound No. 78] | 15 | 23
6 | Ac-[D-Aze(2)24, Cha27,28,36, Aib31]-PYY(23-36) (Ac-S[dAze]RH[Cha][Cha]NL[Aib]TRQR[Cha]-NH2; SMILES CC(=O)N[C@@H](CO)C(=O)N1CC[C@@H]1C(=O)N[C@@H](CCCNC(=N)N)C(=O)N[C@@H](Cc1c[nH]cn1)C(=O)N[C@@H](CC1CCCCC1)C(=O)N[C@@H](CC1CCCCC1)C(=O)N[C@@H](CC(N)=O)C(=O)N[C@@H](CC(C)C)C(=O)NC(C)(C)C(=O)N[C@H](C(=O)N[C@@H](CCCNC(=N)N)C(=O)N[C@@H](CCC(N)=O)C(=O)N[C@@H](CCCNC(=N)N)C(=O)N[C@@H](CC1CCCCC1)C(N)=O)[C@@H](C)O) [compound No. 153] | 1.7 | 1.3
7 | Isobutanoyl-[Abu26, Cha27,28,36, Pya(3)31]-PYY(25-36) (Isobutyryl-R[Abu][Cha][Cha]NL[3Pal]TRQR[Cha]-NH2; SMILES CC[C@H](NC(=O)[C@H](CCCNC(=N)N)NC(=O)C(C)C)C(=O)N[C@@H](CC1CCCCC1)C(=O)N[C@@H](CC1CCCCC1)C(=O)N[C@@H](CC(N)=O)C(=O)N[C@@H](CC(C)C)C(=O)N[C@@H](Cc1cccnc1)C(=O)N[C@H](C(=O)N[C@@H](CCCNC(=N)N)C(=O)N[C@@H](CCC(N)=O)C(=O)N[C@@H](CCCNC(=N)N)C(=O)N[C@@H](CC1CCCCC1)C(N)=O)[C@@H](C)O) [compound No. 82] | 25 | 19
8 | Ac-[D-Pro24, Pya(4)26, Cha27, Aib28,31, Lys30, Phe(3Me)36]-PYY(23-36) (Ac-S[dP]R[4Pal][Cha][Aib]NK[Aib]TRQR[Phe(3-Me)]-NH2; SMILES CC(=O)N[C@@H](CO)C(=O)N1CCC[C@@H]1C(=O)N[C@@H](CCCNC(=N)N)C(=O)N[C@@H](Cc1ccncc1)C(=O)N[C@@H](CC1CCCCC1)C(=O)NC(C)(C)C(=O)N[C@@H](CC(N)=O)C(=O)N[C@@H](CCCCN)C(=O)NC(C)(C)C(=O)N[C@H](C(=O)N[C@@H](CCCNC(=N)N)C(=O)N[C@@H](CCC(N)=O)C(=O)N[C@@H](CCCNC(=N)N)C(=O)N[C@@H](Cc1cccc(C)c1)C(N)=O)[C@@H](C)O) [compound No. 260] | 0.91 | 1.2

Further lines, results first:

Row | RBA IC50 Ratio (human Y2 receptor [1]) | GBA EC50 Ratio (human Y2 receptor [2]) | Substance
9 | 1.1 | 0.9 | Ac-[D-Hyp24, Cha27,28,36, Aib31]-PYY(23-36) (Ac-S[dHyp]RH[Cha][Cha]NL[Aib]TRQR[Cha]-NH2; SMILES CC(=O)N[C@@H](CO)C(=O)N1C[C@@H](O)C[C@@H]1C(=O)N[C@@H](CCCNC(=N)N)C(=O)N[C@@H](Cc1c[nH]cn1)C(=O)N[C@@H](CC1CCCCC1)C(=O)N[C@@H](CC1CCCCC1)C(=O)N[C@@H](CC(N)=O)C(=O)N[C@@H](CC(C)C)C(=O)NC(C)(C)C(=O)N[C@H](C(=O)N[C@@H](CCCNC(=N)N)C(=O)N[C@@H](CCC(N)=O)C(=O)N[C@@H](CCCNC(=N)N)C(=O)N[C@@H](CC1CCCCC1)C(N)=O)[C@@H](C)O) [compound No. 114]
10 | 7.6 | 8.5 | Benzoyl-[Cha27,36, Ile28, Pya(4)31]-PYY(25-36) (Bz-RH[Cha]INL[4Pal]TRQR[Cha]-NH2; SMILES CC[C@H](C)[C@H](NC(=O)[C@H](CC1CCCCC1)NC(=O)[C@H](Cc1c[nH]cn1)NC(=O)[C@H](CCCNC(=N)N)NC(=O)c1ccccc1)C(=O)N[C@@H](CC(N)=O)C(=O)N[C@@H](CC(C)C)C(=O)N[C@@H](Cc1ccncc1)C(=O)N[C@H](C(=O)N[C@@H](CCCNC(=N)N)C(=O)N[C@@H](CCC(N)=O)C(=O)N[C@@H](CCCNC(=N)N)C(=O)N[C@@H](CC1CCCCC1)C(N)=O)[C@@H](C)O) [compound No. 71]
11 | 28 | 18 | Benzoyl-[Cha27,28,36, Aib31]-PYY(25-36) (Bz-RH[Cha][Cha]NL[Aib]TRQR[Cha]-NH2; SMILES CC(C)C[C@H](NC(=O)[C@H](CC(N)=O)NC(=O)[C@H](CC1CCCCC1)NC(=O)[C@H](CC1CCCCC1)NC(=O)[C@H](Cc1c[nH]cn1)NC(=O)[C@H](CCCNC(=N)N)NC(=O)c1ccccc1)C(=O)NC(C)(C)C(=O)N[C@H](C(=O)N[C@@H](CCCNC(=N)N)C(=O)N[C@@H](CCC(N)=O)C(=O)N[C@@H](CCCNC(=N)N)C(=O)N[C@@H](CC1CCCCC1)C(N)=O)[C@@H](C)O) [compound No. 64]
12 | 0.6 | 0.72 | [MeAla22, D-Pro24, Cha27,28,36, Aib31]-PYY(22-36) ([NMeA]S[dP]RH[Cha][Cha]NL[Aib]TRQR[Cha]-NH2; N-terminus assumed; SMILES CN[C@@H](C)C(=O)N[C@@H](CO)C(=O)N1CCC[C@@H]1C(=O)N[C@@H](CCCNC(=N)N)C(=O)N[C@@H](Cc1c[nH]cn1)C(=O)N[C@@H](CC1CCCCC1)C(=O)N[C@@H](CC1CCCCC1)C(=O)N[C@@H](CC(N)=O)C(=O)N[C@@H](CC(C)C)C(=O)NC(C)(C)C(=O)N[C@H](C(=O)N[C@@H](CCCNC(=N)N)C(=O)N[C@@H](CCC(N)=O)C(=O)N[C@@H](CCCNC(=N)N)C(=O)N[C@@H](CC1CCCCC1)C(N)=O)[C@@H](C)O) [compound No. 123]
13 | 7.4 | 3.9 | Ac-[Glu23, βAla24, Pya(4)26, Cha27,36, Aib28,31, Lys30]-PYY(23-36) (Ac-E[βAla]R[4Pal][Cha][Aib]NK[Aib]TRQR[Cha]-NH2; SMILES CC(=O)N[C@@H](CCC(=O)O)C(=O)NCCC(=O)N[C@@H](CCCNC(=N)N)C(=O)N[C@@H](Cc1ccncc1)C(=O)N[C@@H](CC1CCCCC1)C(=O)NC(C)(C)C(=O)N[C@@H](CC(N)=O)C(=O)N[C@@H](CCCCN)C(=O)NC(C)(C)C(=O)N[C@H](C(=O)N[C@@H](CCCNC(=N)N)C(=O)N[C@@H](CCC(N)=O)C(=O)N[C@@H](CCCNC(=N)N)C(=O)N[C@@H](CC1CCCCC1)C(N)=O)[C@@H](C)O) [compound No. 223]
